According to patent US20220000998A1:

B1: 14GIIICII-b scFv (scFv)
scFv: QVQLQQPGAELVMPGASVNLSCKASGYTFTDYWMHWVKQRPGQGLEWIGEIDPSDNFSNLNQNFRGKATLTVDKSSRTAFLQLSSLTSEDSAVYYCAVEDYWGQGTTLTVSSGGGGSGGGGSGGGGSGGGGSDIVMTQATPSVLVTPGEAVSISCRASRSLLHSNGITYLYWFLQRPGQSPQVLIYRMSNLVSGVPDRFSGSGSGTAFTLRISRVEAEDVGVYYCMQHLEFPYTFGGGTKLEIK
B2: scFv Y-SM083-p04-D04 (scFv)
scFv: EVQLLESGGGLVQPGGSLRLSCAASGFTFSGYYMYWVRQAPGKGLEWVSYIGYSGGGTGYADSVKGRFTISRDNSKNTLYLQMNSLRAEDTAVYYCARVPFGAFDYWGQGTLVTVSSGGGGSGGGGSGGGGSDIQMTQSPSSLSASVGDRVTITCRASQSISSYLNWYQQKPGKAPKLLIYAASSLQSGVPSRFSGSGSGTDFTLTISSLQPEDFATYYCQQYYGFPYTFGQGTKLEIK
B3: IBIIICI-b scFv (scFv)
scFv: EVRLLQSGAALVRPGASVKLSCTASGFNIKDFNIHWVKQRPEQGLEWIGRIDPENGDAEYVPKFQVRATMTTDTSSNTVYLHLSSLTSGDTAVYYCTTGSYDLDVEYWGQGTTLTVSSGGGGSGGGGSGGGGSGGGGSELQMTQSPSSLSASLGDTVTITCHASQNINVWLSWYQQRPGNIPKLLIYKASTLHTGVPSRFRGSGSGTGFTLTISSLQPEDIATYYCQQGQSYPLTFGAGTKLELK

Columns and labels:
[1] = target: MTTE peptide (minimal tetanus toxin epitope), biotinylated (Clostridium tetani)
[2] = target: SM083P004 (Clostridium tetani)

Binder | Kd [1] [nM] | koff [1] [s⁻¹] | kon [1] [M⁻¹ s⁻¹] | Kd [2] [nM] | koff [2] [s⁻¹] | kon [2] [M⁻¹ s⁻¹]
B1 | 1.8 | 0.00032 | 180000 | – | – | –
B2 | – | – | – | 3.3 | 0.00043 | 130000
B3 | 0.52 | 0.00048 | 920000 | – | – | –
